B1: motor domain of Kif1 (amino acids 1-365) (domain or fragment)
chain: MAGASVKVAVRVRPFNSREMSRDSKCIIQMSGSTTTIVNPKQPKETPKSFSFDYSYWSHTSPEDINYASQKQVYRDIGEEMLQHAFEGYNVCIFAYGQTGAGKSYTMMGKQEKDQQGIIPQLCEDLFSRINDTTNDNMSYSVEVSYMEIYCERVRDLLNPKNKGNLRVREHPLLGPYVEDLSKLAVTSYNDIQDLMDSGNKARTVAATNMNETSSRSHAVFNIIFTQKRHDAETNITTEKVSKISLVDLAGSERADSTGAKGTRLKEGANINKSLTTLGKVISALAEMDSGPNKNKKKKKTDFIPYRDSVLTWLLRENLGGNSRTAMVAALSPADINYDETLSTLRYADRAKQIRCNAVINEDPN

Assays:
[1] = target: N-terminal HaloTag human KIF1A (amino acids 1-361) fusion protein (human) (UniProt Q12756); test: pull-down; HaloTag-Kif1a (1-361) on HaloLink magnetic beads under saturated conditions; MTs with or without full-length human Dcx; 5 μM of each protein; 4 mM ATP, ADP or AMP-PNP; supernatant and pellet, silver staining, densitometry, bound fraction P/(S+P) normalized to ATP without Dcx
[2] = target: MTs of the traditional MT pull-down assay from lysates; test: pull-down; traditional MT pull-down assay with AMP-PNP; lysates from HEK cells expressing Kif1 (1-365) with or without Dcx (amino acids 1-270); excess MTs

Molecule	fold increase of Kif1a-MT binding with Dcx in the presence of ADP, against a Dcx-negative control [1]	increase in binding of Kif1a to MTs with Dcx (amino acids 1-270) over control [2]
porcine MTs (microtubules) (complex)	2 fold	–
B1	–	15 to 20%
